Results published in patent US20210238268A1 (ATARGA, published 2021).

Target: T1, human Complement component 5 (C5) (human, UniProt P01031 19-1676, limits assumed)
T1 construct: also called human C5
Assay: ELISA, binding to human C5 at pH 7.4 (C5 ELISA, absorbance at 450 nm)
Experimental: The exemplary antibodies were tested for binding to human C5 at pH 7.4 using ELISA.

T1 sequence (P01031 19-1676 limits assumed): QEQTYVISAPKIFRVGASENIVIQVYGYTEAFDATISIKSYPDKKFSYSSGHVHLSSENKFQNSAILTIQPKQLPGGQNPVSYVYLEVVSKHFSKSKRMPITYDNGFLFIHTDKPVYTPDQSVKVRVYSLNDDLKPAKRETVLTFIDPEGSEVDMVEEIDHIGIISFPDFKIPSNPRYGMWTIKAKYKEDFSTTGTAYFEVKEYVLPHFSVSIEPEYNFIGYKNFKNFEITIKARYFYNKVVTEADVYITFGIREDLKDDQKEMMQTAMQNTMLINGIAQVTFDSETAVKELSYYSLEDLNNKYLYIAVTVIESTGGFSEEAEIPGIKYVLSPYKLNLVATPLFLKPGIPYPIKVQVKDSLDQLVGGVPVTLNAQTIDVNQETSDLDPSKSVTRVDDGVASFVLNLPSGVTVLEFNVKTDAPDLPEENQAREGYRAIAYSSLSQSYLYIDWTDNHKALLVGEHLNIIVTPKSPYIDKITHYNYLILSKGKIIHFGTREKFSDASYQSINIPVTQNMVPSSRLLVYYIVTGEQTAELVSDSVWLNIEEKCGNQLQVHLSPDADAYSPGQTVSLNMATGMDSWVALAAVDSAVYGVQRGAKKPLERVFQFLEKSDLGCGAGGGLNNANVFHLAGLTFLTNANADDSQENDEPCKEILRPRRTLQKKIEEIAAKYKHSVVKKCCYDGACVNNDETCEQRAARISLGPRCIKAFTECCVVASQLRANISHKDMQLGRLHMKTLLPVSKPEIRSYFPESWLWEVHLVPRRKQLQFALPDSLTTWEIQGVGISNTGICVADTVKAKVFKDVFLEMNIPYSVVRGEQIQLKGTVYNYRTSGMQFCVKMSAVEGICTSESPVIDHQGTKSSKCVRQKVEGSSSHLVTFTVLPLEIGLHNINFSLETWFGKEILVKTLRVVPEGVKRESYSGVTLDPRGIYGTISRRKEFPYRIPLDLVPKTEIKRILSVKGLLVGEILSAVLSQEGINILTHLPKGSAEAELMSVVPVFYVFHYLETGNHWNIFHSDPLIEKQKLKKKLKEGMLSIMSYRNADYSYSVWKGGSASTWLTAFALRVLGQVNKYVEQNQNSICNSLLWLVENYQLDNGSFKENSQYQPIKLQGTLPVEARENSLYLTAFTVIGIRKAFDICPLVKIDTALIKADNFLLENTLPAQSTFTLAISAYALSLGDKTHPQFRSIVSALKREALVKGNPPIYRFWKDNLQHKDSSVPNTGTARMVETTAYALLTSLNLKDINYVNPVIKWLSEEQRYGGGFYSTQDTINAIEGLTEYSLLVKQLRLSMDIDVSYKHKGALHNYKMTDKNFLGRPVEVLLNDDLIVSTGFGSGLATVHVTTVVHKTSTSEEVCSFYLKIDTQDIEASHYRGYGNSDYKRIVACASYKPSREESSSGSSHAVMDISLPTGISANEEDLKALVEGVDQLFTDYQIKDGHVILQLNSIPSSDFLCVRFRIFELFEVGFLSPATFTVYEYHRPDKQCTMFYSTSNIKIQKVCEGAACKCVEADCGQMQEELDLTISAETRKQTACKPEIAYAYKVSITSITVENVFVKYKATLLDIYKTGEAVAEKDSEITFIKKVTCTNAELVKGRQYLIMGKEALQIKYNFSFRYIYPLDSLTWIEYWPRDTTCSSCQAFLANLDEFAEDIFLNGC

Row | Binder | EC50 | EC50 (read off the curve)
1 | ATG-001 (antibody, V domains shown, Expressed in Expi CHO cells; also called anti-C5 monoclonal antibody ATG-001) VH: QVQLVQSGAEVKKPGASVKVSCKASGYIFTNYWMQWVRQAPGQGLEWMGEILPGTGSTEYAQKFQGRVTMTRDTSISTVYMEVRRLRSDDTAVYYCARYFFGSTPNWYFDVWGQGTLVTVSS VL: EIVMTQSPSSLSASVGDRVTITCGATENIYGALNWYQHEPGKAPKLLIYGASNLADGVTSRFSGSGSGTDFTLTISTLQPEDFATYYCQNVLNTPLSFGGGTKVDIKR | 0.099 µg/mL | 
2 | ATG-005 (antibody, V domains shown, Expressed in Expi CHO cells; also called anti-C5 monoclonal antibody ATG-005) VH: QVQLVQSGAEVKKPGASVKVSCKASGYIFTNYWMQWVRQAPGQGLEWMGEILPGTGSTEYAQKFQGRVTMTRDTSISTVYMEVRRLRSDDTAVYYCARYFFGSTPNWYFDVWGQGTLVTVSS VL: EIVMTQSPSSLSASVGDRVTITCGATENIYGALNWYQHEPGKAPKLLIYGASNRYTGVTSRFSGSGSGTDFTLTISTLQPEDFATYYCQQVLNTPVSFGGGTKVDIKR | 0.041 µg/mL | ~0.04 µg/mL
3 | ATG-006 (antibody, V domains shown, Expressed in Expi CHO cells; also called anti-C5 monoclonal antibody ATG-006) VH: QVQLVQSGAEVKKPGASVKVSCKASGYIFTDFYMQWVRQAPGQGLEWMGEILPGTGSTEYAQKFQGRVTMTRDTSISTVYMEVRRLRSDDTAVYYCARYFFGSTPNWYFDVWGQGTLVTVSS VL: EIVMTQSPSSLSASVGDRVTITCGATENIYGALNWYQHEPGKAPKLLIYGASNRYTGVTSRFSGSGSGTDFTLTISTLQPEDFATYYCQQVLNTPVSFGGGTKVDIKR | 0.034 µg/mL | ~0.03 µg/mL
4 | ATG-008 (antibody, IgG2, Expressed in Expi CHO cells; also called anti-C5 monoclonal antibody ATG-008) heavy: QVQLVQSGAEVKKPGASVKVSCKASGHIFTDFYMQWVRQAPGQGLEWMGEILPGTGHTEYAQKFQGRVTMTRDTSISTVYMEVRRLRSDDTAVYYCARYFFGSTPNWYFDVWGQGTLVTVSSASTKGPSVFPLAPCSRSTSESTAALGCLVKDYFPEPVTVSWNSGALTSGVHTFPAVLQSSGLYSLSSVVTVPSSNFGTQTYTCNVDHKPSNTKVDKTVERKCCVECPPCPAPPVAGPSVFLFPPKPKDTLMISRTPEVTCVVVDVSQEDPEVQFNWYVDGVEVHNAKTKPREEQFNSTYRVVSVLTVLHQDWLNGKEYKCKVSNKGLPSSIEKTISKAKGQPREPQVYTLPPSQEEMTKNQVSLTCLVKGFYPSDIAVEWESNGQPENNYKTTPPVLDSDGSFFLYSRLTVDKSRWQEGNVFSCSVLHEALHSHYTQKSLSLSLGK light: EIVMTQSPSSLSASVGDRVTITCGATENIYGALNWYQHEPGKAPKLLIYGASNRYTGVTSRFSGSGSGTDFTLTISTLQPEDFATYYCQQVLNTPVSFGGGTKVDIKRTVAAPSVFIFPPSDEQLKSGTASVVCLLNNFYPREAKVQWKVDNALQSGNSQESVTEQDSKDSTYSLSSTLTLSKADYEKHKVYACEVTHQGLSSPVTKSFNRGEC | 0.09 µg/mL | 
5 | ATG-012 (antibody, IgG2, Same variable regions as ATG-008; Expressed in Expi CHO cells; also called anti-C5 monoclonal antibody ATG-012) heavy: QVQLVQSGAEVKKPGASVKVSCKASGHIFTDFYMQWVRQAPGQGLEWMGEILPGTGHTEYAQKFQGRVTMTRDTSISTVYMEVRRLRSDDTAVYYCARYFFGSTPNWYFDVWGQGTLVTVSSASTKGPSVFPLAPCSRSTSESTAALGCLVKDYFPEPVTVSWNSGALTSGVHTFPAVLQSSGLYSLSSVVTVPSSNFGTQTYTCNVDHKPSNTKVDKTVERKCCVECPPCPAPPVAGPSVFLFPPKPKDTLYITREPEVTCVVVDVSQEDPEVQFNWYVDGVEVHNAKTKPREEQFNSTYRVVSVLTVLHQDWLNGKEYKCKVSNKGLPSSIEKTISKAKGQPREPQVYTLPPSQEEMTKNQVSLTCLVKGFYPSDIAVEWESNGQPENNYKTTPPVLDSDGSFFLYSRLTVDKSRWQEGNVFSCSVMHEALHNHYTQKSLSLSLGK light: EIVMTQSPSSLSASVGDRVTITCGATENIYGALNWYQHEPGKAPKLLIYGASNRYTGVTSRFSGSGSGTDFTLTISTLQPEDFATYYCQQVLNTPVSFGGGTKVDIKRTVAAPSVFIFPPSDEQLKSGTASVVCLLNNFYPREAKVQWKVDNALQSGNSQESVTEQDSKDSTYSLSSTLTLSKADYEKHKVYACEVTHQGLSSPVTKSFNRGEC | 0.52 µg/mL | 
